In article PMC9810211:

Molecular target: SeTau-405 fluorescently labeled BOA (Burkholderia oklahomensis)
Assay: other fluorescence titration

Question: With “SARS-CoV-2 Spike protein (Hexapro S) (from UniProt P0DTC2) (natural protein)” as the substance, how does the half-saturation point read?
Answer: The half-saturation point was 30 to 60 nM.
